According to the supplement of paper PMC7125110:
± gives the standard error. This sample holds only a part of the variants without activity.

B1: glmS ribozyme (parent)
chain: AUAAAAGCGCCAGAACUACAGAAAUGUAGUUGACGAGGAGGAGGUUUAUCGAAUUUUCGGCGGAUGCCUCCAAA

Experiments:
Conditions in all cases: with glucosamine-6-phosphate
glucosamine-6-phosphate [1] = variants of: B1; assay: self-cleavage kobs at 640 uM GlcN6P; higher = faster cleavage; RNA array
Outline: (§1)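 Over ~14 h at 37 °C, tiles were imaged as glucosamine-6-phosphate (40 μM to 10 mM) in HEPES/KCl/Mg(OAc)2 buffer flowed across sequenced MiSeq chips. The chips carried barcoded ribozyme variants transcribed in situ by E. coli RNA polymerase and tracked with a hybridised Cy3 probe. After normalisation to baseline and to non-cleaving reference variants, one- or two-exponential decay fits of per-tile medians gave kobs. kcat and KM followed from weighted Michaelis–Menten fits across concentrations.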

glucosamine-6-phosphate [2] = variants of: B1; assay: self-cleavage kobs at 2500 uM GlcN6P; higher = faster cleavage; RNA array
Outline: as §1

glucosamine-6-phosphate [3] = variants of: B1; assay: self-cleavage kobs at 10000 uM GlcN6P; higher = faster cleavage; RNA array
Outline: as §1

Variant | self-cleavage kobs at 640 uM GlcN6P (glucosamine-6-phosphate [1]) [s⁻¹] | self-cleavage kobs at 2500 uM GlcN6P (glucosamine-6-phosphate [2]) [s⁻¹] | self-cleavage kobs at 10000 uM GlcN6P (glucosamine-6-phosphate [3]) [s⁻¹]
C8G A12U C70U | < 1e-05 | < 1e-05 | 
C34U G40U A53U C58U G60U C61A C68A | < 1e-05 |  | 
A42G A52U | 5.23e-05 ± 1.2e-05 | 0.000479 ± 9.3e-05 | 0.000467 ± 9.8e-05
A39U A52C A53G A64U | < 1e-05 | < 1e-05 | 
C8U G44A U45C | < 1e-05 | < 1e-05 | 
A6C G44A A64G | < 1e-05 |  | 
G35C G43U C61U | < 1e-05 | < 1e-05 | 
A12G A52G G62U | < 1e-05 | < 1e-05 | 
A6G G43U U69G | < 1e-05 |  | 
A15U U30A C68A | 0.000134 ± 5.1e-05 | 0.000121 ± 4.8e-05 | 
C8A G35C G66U A72G | < 1e-05 |  | 
C8U C70G | 0.0011 ± 0.00055 |  | 
G44U U47G A52G A64G | < 1e-05 |  | 
G9U U47G C68A | < 1e-05 |  | 
U55A C58U C61A C67A | 8.67e-05 ± 2.1e-05 |  | 
G29C U47C C70U | 8.05e-05 ± 1.3e-05 | 0.000105 ± 2.4e-05 | 
G40U G43U A48C U56A U65A | < 1e-05 |  | 
G37U C70G C71A | 5.1e-05 ± 1.4e-05 |  | 
G9U G44A A64C | < 1e-05 |  | 
G29U G35A U45G | < 1e-05 |  | 
A6G G13C G32A G66U | < 1e-05 | < 1e-05 | 
C10U A33U A36U G43U A53G C71U | < 1e-05 | < 1e-05 | 

Variant | self-cleavage kobs at 640 uM GlcN6P (glucosamine-6-phosphate [1]) [s⁻¹] | self-cleavage kobs at 2500 uM GlcN6P (glucosamine-6-phosphate [2]) [s⁻¹] | self-cleavage kobs at 10000 uM GlcN6P (glucosamine-6-phosphate [3]) [s⁻¹]
A33U A52G C68G C71G | 0.000207 ± 7.3e-05 | 9.93e-05 ± 4e-05 | 
A42U C61G G66A | < 1e-05 |  | 
C11A G35U C71G | < 1e-05 | < 1e-05 | 
C8A C34A G59U A64G | < 1e-05 | < 1e-05 | 
G7U G9U G43U | < 1e-05 | < 1e-05 | 
C11U G62U | < 1e-05 |  | < 1e-05
C10G C68G C70U | 9.88e-05 ± 3.1e-05 |  | 
G7C G9U G62C | < 1e-05 |  | 
C8G U31C G38A | < 1e-05 |  | < 1e-05
A6C G13U C50G G62A C68U | 0.000276 ± 0.0001 | 0.000212 ± 9.7e-05 | 
A15U U49G A64C | < 1e-05 |  | 
A33U G41C G51U U55A | < 1e-05 |  | < 1e-05
C10U U57C | < 1e-05 |  | < 1e-05
U49A U57C | < 1e-05 |  | 
G7U C11U A12C A15C A48G | < 1e-05 |  | 
G29A U30G G35A A39U | < 1e-05 | < 1e-05 | 
A12G A14G U57A C68A U69G | 0.000246 ± 8e-05 | 7.01e-05 ± 3.5e-05 | 
C8G G13U A33U G38A | < 1e-05 |  | 
C8G G35U G37A A48U C67U | < 1e-05 | < 1e-05 | 
C8U G9U G13U G41U A42U C50G C68U | < 1e-05 | < 1e-05 | 
A6G A33G U47A | < 1e-05 |  | 
A12G U47A G62U C67G C68G | 0.000122 ± 3.6e-05 |  | 

Variant | self-cleavage kobs at 640 uM GlcN6P (glucosamine-6-phosphate [1]) [s⁻¹] | self-cleavage kobs at 2500 uM GlcN6P (glucosamine-6-phosphate [2]) [s⁻¹] | self-cleavage kobs at 10000 uM GlcN6P (glucosamine-6-phosphate [3]) [s⁻¹]
C10A A36U C68A | 0.000222 ± 9e-05 |  | 
A6C G9C G41U | < 1e-05 | < 1e-05 | 
G32C C70G | 0.000253 ± 8.1e-05 |  | 2.34e-05 ± 9.6e-06
G32U G35U A42U U56A U57A G62U | < 1e-05 | < 1e-05 | 
A36G A53U C68A C71G | 8.35e-05 ± 2e-05 |  | 
U45C C71G | 8.57e-05 ± 2.5e-05 | 5.59e-05 ± 2.2e-05 | 0.000305 ± 6.9e-05
C11A G35C C50U C58U | < 1e-05 | < 1e-05 | 
A6G G32U G35U G51A | < 1e-05 |  | 
A14U U46A C68U | 4.63e-05 ± 1.7e-05 | 0.000119 ± 2e-05 | 
G35U A39U G62A | < 1e-05 | < 1e-05 | 
A6G C10U U54G | < 1e-05 | < 1e-05 | < 1e-05
C8A G40A C68U | < 1e-05 |  | < 1e-05
U30G G40C A53G G62C | < 1e-05 |  | 
G13A G44U | < 1e-05 | < 1e-05 | 
A42G G43A C67U C68U | 0.000241 ± 0.00011 |  | 0.000713 ± 0.00018
G9U A42G U45A C58G | < 1e-05 | < 1e-05 | 
A12C C16G A42G G44C U45G U46A C61A G62C | < 1e-05 | < 1e-05 | 
A33G A53C A64U | < 1e-05 |  | 
G9U C70G | < 1e-05 | < 1e-05 | < 1e-05
C8A C16U C50U U56G | < 1e-05 |  | 
U54A U55G A64C | 3.35e-05 ± 1.7e-05 | 5.81e-05 ± 1.7e-05 | 
